# Experimental data reported in article PMC8420271 (The EMBO Journal, 2021).
# B1: FLAG-tagged full-length GSDMD (natural protein)
# chain: MGSAFERVVRRVVQELDHGGEFIPVTSLQSSTGFQPYCLVVRKPSSSWFWKPRYKCVNLSIKDILEPDAAEPDVQRGRSFHFYDAMDGQIQGSVELAAPGQAKIAGGAAVSDSSSTSMNVYSLSVDPNTWQTLLHERHLRQPEHKVLQQLRSRGDNVYVVTEVLQTQKEVEVTRTHKREGSGRFSLPGATCLQGEGQGHLSQKKTVTIPSGSTLAFRVAQLVIDSDLDVLLFPDKKQRTFQPPATGHKRSTSEGAWPQLPSGLSMMRCLHNFLTDGVPAEGAFTEDFQGLRAEVETISKELELLDRELCQLLLEGLEGVLRDQLALRALEEALEQGQSLGPVEPLDGPAGAVLECLVLSSGMLVPELAIPVVYLLGALTMLSETQHKLLAEALESQTLLGPLELVGSLLEQSAPWQERSTMSLPPGLLGNSWGEGAPAWVLLDECGLELGEDTPHVCWEPQAQGRMCALYASLALLSGLSQEPH
# B2: GST-GSDMD truncation lacking aa 302-310 (natural protein)
# chain: MGSAFERVVRRVVQELDHGGEFIPVTSLQSSTGFQPYCLVVRKPSSSWFWKPRYKCVNLSIKDILEPDAAEPDVQRGRSFHFYDAMDGQIQGSVELAAPGQAKIAGGAAVSDSSSTSMNVYSLSVDPNTWQTLLHERHLRQPEHKVLQQLRSRGDNVYVVTEVLQTQKEVEVTRTHKREGSGRFSLPGATCLQGEGQGHLSQKKTVTIPSGSTLAFRVAQLVIDSDLDVLLFPDKKQRTFQPPATGHKRSTSEGAWPQLPSGLSMMRCLHNFLTDGVPAEGAFTEDFQGLRAEVETISKELLLLEGLEGVLRDQLALRALEEALEQGQSLGPVEPLDGPAGAVLECLVLSSGMLVPELAIPVVYLLGALTMLSETQHKLLAEALESQTLLGPLELVGSLLEQSAPWQERSTMSLPPGLLGNSWGEGAPAWVLLDECGLELGEDTPHVCWEPQAQGRMCALYASLALLSGLSQEPH
# B3: GST-tagged GSDMD linker containing amino acids 260-290 (domain or fragment)
# chain: PSGLSMMRCLHNFLTDGVPAEGAFTEDFQGL
# B4: GST-GSDMD (full-length human GSDMD) (natural protein)
# chain: B1 chain
# B5: GST-GSDMD truncation lacking aa 350-368 (natural protein)
# chain: MGSAFERVVRRVVQELDHGGEFIPVTSLQSSTGFQPYCLVVRKPSSSWFWKPRYKCVNLSIKDILEPDAAEPDVQRGRSFHFYDAMDGQIQGSVELAAPGQAKIAGGAAVSDSSSTSMNVYSLSVDPNTWQTLLHERHLRQPEHKVLQQLRSRGDNVYVVTEVLQTQKEVEVTRTHKREGSGRFSLPGATCLQGEGQGHLSQKKTVTIPSGSTLAFRVAQLVIDSDLDVLLFPDKKQRTFQPPATGHKRSTSEGAWPQLPSGLSMMRCLHNFLTDGVPAEGAFTEDFQGLRAEVETISKELELLDRELCQLLLEGLEGVLRDQLALRALEEALEQGQSLGPVEPLDGPAIPVVYLLGALTMLSETQHKLLAEALESQTLLGPLELVGSLLEQSAPWQERSTMSLPPGLLGNSWGEGAPAWVLLDECGLELGEDTPHVCWEPQAQGRMCALYASLALLSGLSQEPH
# B6: GST-GSDMD truncation lacking both aa 302-310 and aa 350-368 (natural protein)
# chain: MGSAFERVVRRVVQELDHGGEFIPVTSLQSSTGFQPYCLVVRKPSSSWFWKPRYKCVNLSIKDILEPDAAEPDVQRGRSFHFYDAMDGQIQGSVELAAPGQAKIAGGAAVSDSSSTSMNVYSLSVDPNTWQTLLHERHLRQPEHKVLQQLRSRGDNVYVVTEVLQTQKEVEVTRTHKREGSGRFSLPGATCLQGEGQGHLSQKKTVTIPSGSTLAFRVAQLVIDSDLDVLLFPDKKQRTFQPPATGHKRSTSEGAWPQLPSGLSMMRCLHNFLTDGVPAEGAFTEDFQGLRAEVETISKELLLLEGLEGVLRDQLALRALEEALEQGQSLGPVEPLDGPAIPVVYLLGALTMLSETQHKLLAEALESQTLLGPLELVGSLLEQSAPWQERSTMSLPPGLLGNSWGEGAPAWVLLDECGLELGEDTPHVCWEPQAQGRMCALYASLALLSGLSQEPH
# B7: GST-tagged GSDMD linker containing amino acids 265-284 (domain or fragment)
# chain: MMRCLHNFLTDGVPAEGAFT
# B8: GST-tagged GSDMD linker containing amino acids 270-280 (domain or fragment)
# chain: HNFLTDGVPAE
# B9: caspase-1 p20 (C285A)-His / p10-His complex (complex)
# chain 1: NPAMPTSSGSEGNVKLCSLEEAQRIWKQKSAEIYPIMDKSSRTRLALIICNEEFDSIPRRTGAEVDITGMTMLLQNLGYSVDVKKNLTASDMTTELEAFAHRPEHKTSDSTFLVFMSHGIREGICGKKHSEQVPDILQLNAIFNMLNTKNCPSLKDKPKVIIIQAARGDSPGVVWFKD
# chain 2: AIKKAHIEKDFIAFCSSTPDNVSWRHPTMGSVFIGRLIEHMQEYACSCDVEEIFRKVRFSFEQPDGRAQMPTTERVTLTRCFYLFPGH
# Biological target: Myc-tagged SARS-CoV-2 nucleocapsid (SARS-CoV-2, UniProt P0DTC9 1-419)
# Assay: co-IP
row,Binder,binding result
1,B1,binds

# Biological target: His-tagged SARS-CoV-2 nucleocapsid (SARS-CoV-2, UniProt P0DTC9 1-419)
# Assay: pull-down
row,Binder,binding result
1,B2,binds
2,B3,binds
3,B4,binds
4,B5,binds
5,B6,binds
6,B7,binds
7,B8,binds

# Biological target: B4
# Assay: pull-down
row,Binder,binding result
1,B9,binds
